Assay results reported in patent US20040043420A1, “Method of identifying conformation-sensitive binding peptides and uses thereof” (priority 2003, published 2004).
Blank lines part the entries; values can stand above or below the molecule they belong to.

Assays:
[1] = target: T1, glucocorticoid receptor (GR) (Homo sapiens, UniProt P04150); assay: Yeast-based two-hybrid test of peptide interaction with full-length glucocorticoid receptor; assay type: cell-based
T1 construct: in the yeast based system using full-length receptor; expressed in transfected cells; host or cells: yeast
T1 sequence (P04150 1-777): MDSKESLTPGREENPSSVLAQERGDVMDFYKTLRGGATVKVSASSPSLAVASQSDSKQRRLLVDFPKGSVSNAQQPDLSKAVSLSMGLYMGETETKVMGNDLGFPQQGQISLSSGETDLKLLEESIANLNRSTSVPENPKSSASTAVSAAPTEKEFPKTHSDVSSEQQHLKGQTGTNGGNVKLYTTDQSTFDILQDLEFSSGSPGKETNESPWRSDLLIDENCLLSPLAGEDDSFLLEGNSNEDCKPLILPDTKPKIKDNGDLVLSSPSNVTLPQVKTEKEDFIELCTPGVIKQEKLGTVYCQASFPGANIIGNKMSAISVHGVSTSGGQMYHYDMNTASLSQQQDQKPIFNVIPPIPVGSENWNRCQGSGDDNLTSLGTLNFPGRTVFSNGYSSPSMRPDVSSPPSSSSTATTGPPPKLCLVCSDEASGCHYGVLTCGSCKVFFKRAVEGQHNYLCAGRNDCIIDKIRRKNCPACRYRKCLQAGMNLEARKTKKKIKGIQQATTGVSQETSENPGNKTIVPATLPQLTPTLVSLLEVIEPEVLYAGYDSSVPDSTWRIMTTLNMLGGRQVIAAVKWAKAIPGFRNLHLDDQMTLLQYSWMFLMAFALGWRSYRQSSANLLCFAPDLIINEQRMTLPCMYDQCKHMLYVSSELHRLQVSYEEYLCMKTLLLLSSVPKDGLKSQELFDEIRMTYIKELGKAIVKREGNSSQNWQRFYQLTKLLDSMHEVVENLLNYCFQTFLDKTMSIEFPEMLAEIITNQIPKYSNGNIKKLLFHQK
Source text: (§1) We have performed a limited amount of in vivo screenings for peptides to GR in the yeast based system using full-length receptor and either dexamethasone or medroxyprogesterone acetate as ligands. We have a single peptide sequence that we have followed up on based on its specificity profile in yeast. This peptide was isolated on MPA liganded GR, and is termed GRMPA. Its sequence is as follows: […] (SEQ ID NO:268).

[2] = target: T1, glucocorticoid receptor (GR); assay: Mammalian cell (Huh-7) based peptide/glucocorticoid receptor interaction assay, luciferase; conditions: all ligands (agonists, partial agonists, and antagonists)
Source text: as §1
We have isolated numerous peptides using phage display to the GR ligand binding domain and have formatted cell based assays in mammalian cells for screening large compound sets. We have formatted the assay as stated above for 96-well plates and for 384-well plates. To format the assay to 384-well plates the number of cells per well were scaled down to 5,000 Huh-7 cells per well. Similar ratios of DNA constructs and lipection reagents were used in both assays for transfections prior to seeding the cells into the assay plates. We have also carried out a screen of a 60,000 compound set with one of the phage display isolated peptides in this mammalian cell based format. This peptide interacts with the glucocorticoid receptor in the presence of both agonists (e.g. fluticasone propionate and dexamethasone) and antagonists (RU486). For the compound screen cells were transfected in suspension with DNA constructs as described above prior to seeding 5,000 cells per well. […]

ER α [3] = target: T2, ER α (UniProt P03372 1-595, limits assumed); assay: phage ELISA, ICI 182,780 1 µM
T2 construct: also called estrogen receptor α; ERα-ERE
T2 sequence (looked up): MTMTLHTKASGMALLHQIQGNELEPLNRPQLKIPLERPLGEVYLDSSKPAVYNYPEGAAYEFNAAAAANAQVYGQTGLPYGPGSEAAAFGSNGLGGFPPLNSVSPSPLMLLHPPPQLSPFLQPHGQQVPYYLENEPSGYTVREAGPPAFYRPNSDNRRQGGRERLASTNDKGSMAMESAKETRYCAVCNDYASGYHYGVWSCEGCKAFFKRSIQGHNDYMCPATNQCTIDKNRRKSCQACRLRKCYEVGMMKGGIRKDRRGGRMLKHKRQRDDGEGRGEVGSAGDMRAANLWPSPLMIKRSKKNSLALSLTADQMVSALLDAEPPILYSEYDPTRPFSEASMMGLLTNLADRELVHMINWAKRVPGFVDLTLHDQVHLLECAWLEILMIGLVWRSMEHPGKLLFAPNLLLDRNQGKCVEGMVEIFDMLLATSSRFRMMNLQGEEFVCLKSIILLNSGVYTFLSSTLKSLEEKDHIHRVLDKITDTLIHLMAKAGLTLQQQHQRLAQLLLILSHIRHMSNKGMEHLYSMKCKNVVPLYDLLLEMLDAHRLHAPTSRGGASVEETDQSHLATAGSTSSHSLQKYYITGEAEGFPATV

ER α [4] = target: T2, ER α; assay: peptide probe binding to ERα, ICI 182,780
ER α [5] = target: T2, ER α; assay: peptide probe binding to ERα, Raloxifene
ER β [6] = target: T3, ER β (UniProt Q92731 1-530, limits assumed); assay: peptide probe binding to ERβ, Estriol
T3 construct: In vitro; also called estrogen receptor β; ERβ-ERE
T3 sequence (Q92731 whole entry): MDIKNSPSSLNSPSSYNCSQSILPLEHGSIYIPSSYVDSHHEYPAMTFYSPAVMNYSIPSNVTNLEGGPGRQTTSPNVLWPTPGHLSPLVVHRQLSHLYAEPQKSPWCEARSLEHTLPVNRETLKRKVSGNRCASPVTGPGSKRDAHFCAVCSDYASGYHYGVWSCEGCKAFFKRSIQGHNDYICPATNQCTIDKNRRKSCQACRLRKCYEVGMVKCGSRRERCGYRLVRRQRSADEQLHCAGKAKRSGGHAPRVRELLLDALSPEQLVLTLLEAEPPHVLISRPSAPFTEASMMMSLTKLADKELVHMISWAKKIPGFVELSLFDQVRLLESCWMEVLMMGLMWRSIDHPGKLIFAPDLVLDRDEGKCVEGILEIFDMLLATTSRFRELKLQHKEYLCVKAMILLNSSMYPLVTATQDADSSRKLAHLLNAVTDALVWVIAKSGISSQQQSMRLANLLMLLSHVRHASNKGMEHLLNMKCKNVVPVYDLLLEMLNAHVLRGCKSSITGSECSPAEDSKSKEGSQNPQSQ

ER α [7] = target: T2, ER α; assay: peptide probe binding to ERα, Buffer
ER α [8] = target: T2, ER α; assay: peptide probe binding to ERα, Diethylstilbesterol
ER α [9] = target: T2, ER α; assay: peptide probe binding to ERα, GW7604
ER α [10] = target: T2, ER α; assay: peptide probe binding to ERα, 4-OH Tamoxifen
ER α [11] = target: T2, ER α; assay: affinity of phage class for unliganded ER α
ER β [12] = target: T3, ER β; assay: phage ELISA, ICI 182,780 1 µM
ER α [13] = target: T2, ER α; assay: peptide probe binding to ERα, Nafoxidine
ER β [14] = target: T3, ER β; assay: peptide probe binding to ERβ, Diethylstilbesterol
ER β [15] = target: T3, ER β; assay: peptide probe binding to ERβ, 17α-Estradiol
ER β [16] = target: T3, ER β; assay: peptide probe binding to ERβ, Buffer
ER β [17] = target: T3, ER β; assay: peptide probe binding to ERβ, Nafoxidine
ER β [18] = target: T3, ER β; assay: peptide probe binding to ERβ, Raloxifene
ER α [19] = target: T2, ER α; assay: peptide probe binding to ERα, 17β-Estradiol
ER β [20] = target: T3, ER β; assay: peptide probe binding to ERβ, GW 7604
ER β [21] = target: T3, ER β; assay: peptide probe binding to ERβ, Clomiphene
ER α [22] = target: T2, ER α; assay: peptide probe binding to ERα, Estriol
ER α [23] = target: T2, ER α; assay: peptide probe binding to ERα, 17α-Estradiol
ER β [24] = target: T3, ER β; assay: peptide probe binding to ERβ, ICI 182,780
ER β [25] = target: T3, ER β; assay: peptide probe binding to ERβ, 4-OH Tamoxifen
ER β [26] = target: T3, ER β; assay: peptide probe binding to ERβ, 17β-Estradiol

Interaction with GR in yeast in the presence of full agonists ([1]; fluticasone propionate and dexamethasone): not full agonists
Interaction with GR in yeast in the presence of partial agonists and antagonists ([1]; partial agonists MPA, cortivazol, deoxycorticosterone, antagonist RU486): interacted
Molecule: EFVARYGQLLGWRHPCS [GRMPA]
Interaction with GR in mammalian cells in the presence of ligands [2]: interacted in the presence of all ligands

phage ELISA grade (ER α [3]): 0
Equiv. (ER α [4]): -100%
Equiv. (ER α [5]): 0%
Equiv. (ER β [6]): -75%
Equiv. (ER α [7]): 0%
Equiv. (ER α [8]): 0%
Equiv. (ER α [9]): 0%
Equiv. (ER α [10]): 100%
Molecule: SRLPPSVFSMCGSEVCLSR (also called 9T-β; 9Tβ) [T1-10]

binding result (ER α [11]): binds
Molecule: HGPLTLNLLRSSGG [#41 ER + estradiol (Table 3)]

phage ELISA grade (ER β [12]): 0
Equiv. (ER α [4]): 0%
Equiv. (ER α [5]): 0%
Equiv. (ER α [13]): 0%
Equiv. (ER β [6]): 0%
Equiv. (ER β [14]): 0%
Equiv. (ER α [7]): 0%
Equiv. (ER β [15]): 0%
Equiv. (ER β [16]): 0%
Equiv. (ER α [8]): 0%
Equiv. (ER β [17]): 0%
Equiv. (ER α [9]): 0%
Equiv. (ER β [18]): 0%
Equiv. (ER α [19]): 0%
Equiv. (ER α [10]): 100%
Equiv. (ER β [20]): 0%
Equiv. (ER β [21]): 13%
Equiv. (ER α [22]): 0%
Equiv. (ER α [23]): 0%
Equiv. (ER β [24]): 0%
Equiv. (ER β [25]): 100%
Equiv. (ER β [26]): 0%
Molecule: SSPGSREWFKDMLSR (also called α/β V; AB5) [14T-β]
